# ± gives the standard deviation of the averaged measurements.
# System: Saccharomyces cerevisiae
# Assay: protein stability index of tFT-peptide fusion (C-terminal peptide) (PSI (0-1 scale)); higher = more stable (slower turnover)
# Details: genetic background: wild type; temperature: 30 C
# 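Also: PSI is a weighted mean of sequencing reads over stability bins, variants kept only with over 10 reads, mCherry proximal and sfGFP distal, peptide attached via GGGS linker.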
row,Sequence,protein stability index
1,IKKDSRQRKRDE,0.648 ± 0.0084
2,PYQPSPFRLAAG,0.67 ± 0.1
3,VFRHIGVIYNNF,0.65 ± 0.013
4,SRPLVPSPPSPV,0.663 ± 0.02
5,SSNVVLYHSCSQ,0.65 ± 0.018
6,LNPPYLAPPPPF,0.739 ± 0.045
7,PRGLGPPGWGRR,0.697 ± 0.022
8,EGQVGVGWGWVR,0.786 ± 0.12
9,GYPRPLPYTPST,0.687 ± 0.023
10,GKSHLGGSLTVL,0.671 ± 0.034
11,STPLPPPTPLPA,0.723 ± 0.029
12,AVGTYFSPVVLL,0.65 ± 0.016
13,IPEEHKLTWIIP,0.74 ± 0.067
14,QEMMRGVVGGNW,0.715 ± 0.033
15,GSKVGGVGWRSG,0.726 ± 0.0095
16,KKKEKKKKNKLK,0.74 ± 0.019
17,RGYSGSLSVVIY,0.657 ± 0.057
18,TKHRFPKYRYLG,0.5868 ± 0.0011
19,SQLRSSTSARYV,0.692 ± 0.14
20,KDCHPVSRYVRC,0.707 ± 0.01
21,SLLPCAPHPRPV,0.662 ± 0.074
22,PPAVRRPRRGGN,0.699 ± 0.016
23,FCVFFSGLCCWV,0.55 ± 0.022
24,DLAPLSFVHLLL,0.596 ± 0.037
25,RQKIRRKSSTKN,0.704 ± 0.0074
26,QQLWQTHEHQAR,0.674 ± 0.035

row,Sequence,protein stability index
1,VCSRGVCGFLSG,0.67 ± 0.01
2,YESIVLYPEMYL,0.714 ± 0.2
3,TNGHNGQENGEE,0.602 ± 0.06
4,YVALSTGPLRTP,0.6828 ± 0.0065
5,PHFLLLEDRPQT,0.705 ± 0.02
6,VSSFGHTFCGWI,0.618 ± 0.018
7,PPVLPPPAPLPP,0.6548 ± 0.0047
8,RVRGTLMLRSYG,0.64 ± 0.037
9,GCTTDQIENEIR,0.704 ± 0.033
10,ASPSKVSGLNID,0.785 ± 0.097
11,PRLPPPHRRPAP,0.759 ± 0.022
12,APPAPPTYLAPF,0.729 ± 0.069
13,VLVRRVFRRRSR,0.786 ± 0.11
14,PPLAPPPPPRPP,0.6 ± 0.072
15,KTGIQTEIRYKE,0.63727 ± 0.00029
16,LPHTVITVPDPQ,0.628 ± 0.065
17,EGGMLNAVRPRS,0.663 ± 0.048
18,PTRPPSLPRIPP,0.669 ± 0.028
19,GALARFEGAVRV,0.702 ± 0.012
20,DLRPSLPHPTQP,0.673 ± 0.037
21,MAHAYTRKDTRK,0.64 ± 0.052
22,ISLTFNSNSKPM,0.687 ± 0.053
23,PFFPSSFALLRS,0.7166 ± 0.0067
24,VDLCRPLSRPTV,0.703 ± 0.016
25,HPRRRPPPPSFP,0.611 ± 0.023
26,ERVQTRTTANRD,0.639 ± 0.059

row,Sequence,protein stability index
1,EQGLRRRVFFEV,0.644 ± 0.013
2,TSTQVMYVSCCL,0.63 ± 0.014
3,LLCRGLGSVGRR,0.63 ± 0.18
4,GGGACRVCGCEV,0.648 ± 0.0067
5,FPPPPPPLPPGS,0.687 ± 0.073
6,KAWGGEGRDAWG,0.702 ± 0.069
7,RCRNVGAVATPR,0.643 ± 0.1
8,STGLITYNYSVC,0.648 ± 0.024
9,PRAGPPPPPPSP,0.734 ± 0.028
10,KKKKEIKKKKKT,0.697 ± 0.06
11,CSSLLSSFSLRL,0.671 ± 0.038
12,PRPTPPHPPITR,0.824 ± 0.027
13,SPPLPKFPPAIP,0.689 ± 0.021
14,AGARGVAGWLPR,0.684 ± 0.041
15,LGRGEVWYIDRG,0.696 ± 0.017
16,SLAFLPPSLSSS,0.713 ± 0.056
17,GSSMLFIEQEVE,0.683 ± 0.028
18,LGVRSGGSWRAG,0.792 ± 0.064
19,KRDFILFSASVD,0.627 ± 0.051
20,VYDCDVRHFGQC,0.761 ± 0.053
21,PPPPPPPPPPPL,0.677 ± 0.028
22,GSCTPLPSIDFD,0.648 ± 0.052
23,GVVVKDPGNAFL,0.704 ± 0.029
24,QNPRTDEAVRSP,0.619 ± 0.011
25,FFSSSLMRLGCF,0.6343 ± 0.00098
26,PSVAPFPLAPFS,0.71 ± 0.066

row,Sequence,protein stability index
1,WGVCVIDSWQEG,0.6706 ± 0.0032
2,VGVVRAGWGGAV,0.65 ± 0.059
3,TVRFYHGSFRAP,0.727 ± 0.062
4,LLLLFLCSPSSL,0.496 ± 0.041
5,IGNKLSKMIDTS,0.665 ± 0.053
6,AVWSLMRCREFV,0.652 ± 0.028
7,ILSMSQPHPILS,0.6175 ± 0.0042
8,GKSVVAHGLLGG,0.6702 ± 0.0018
9,PKYYTTTDRLRV,0.622 ± 0.02
10,GTSCPCGGALRP,0.776 ± 0.035
11,LSLFISPTACLT,0.584 ± 0.01
12,PSRSFLPTHCSL,0.666 ± 0.017
13,GAVHQLGTCLFF,0.671 ± 0.045
14,STGVGGPCGRTS,0.617 ± 0.055
15,MCLWMGFWFACF,0.537 ± 0.024
16,PPRPPPNTPLPA,0.725 ± 0.035
17,GGGGGWGVAGGV,0.689 ± 0.013
18,RVRASGIGRFVE,0.625 ± 0.033
19,LSLFLPFRFFRS,0.699 ± 0.025
20,SFSPLRLPPSLL,0.724 ± 0.049
21,ATVGVGSLLVKY,0.747 ± 0.05
22,LHHPPSPLRNPP,0.687 ± 0.059
23,TIWLTFGRTPQS,0.731 ± 0.042
24,CVYGWVGRGWGA,0.707 ± 0.079
25,QFVLLFRSSGLR,0.7104 ± 0.0017
26,PLALSPNPLSRT,0.679 ± 0.045

row,Sequence,protein stability index
1,GWCPNRRSGVWV,0.7285 ± 0.0032
2,RLVNSVAVSFLR,0.697 ± 0.1
3,GGVLGRRLLGGR,0.64 ± 0.051
4,AAGRRGWGRGRG,0.788 ± 0.15
5,SPTLNRSLPVPS,0.654 ± 0.045
6,IDKGENTGKHRL,0.673 ± 0.027
7,QPRPSISGLSPT,0.642 ± 0.02
8,HGLLLRDRPLPT,0.665 ± 0.024
9,WWLARNPLLSRL,0.779 ± 0.026
10,SVLAVSFLSLLV,0.636 ± 0.04
11,KKKKKKKNRETK,0.655 ± 0.042
12,QKKIKNKRQHRT,0.795 ± 0.11
13,RRKHKSEEKHKR,0.649 ± 0.038
14,YGSSFRLVFSVT,0.583 ± 0.0074
15,PPPPPRAPPLPP,0.679 ± 0.029
16,AWGELGAGVFGL,0.68 ± 0.049
17,PHPLSPRPPPSL,0.746 ± 0.013
18,VVSVQHEVIIFL,0.611 ± 0.05
19,PGLPFAPLPPPL,0.733 ± 0.014
20,YFFQAFLLRTPL,0.642 ± 0.018
21,IKGVEKDKKTQK,0.747 ± 0.045
22,SGGGGWVVGGVA,0.663 ± 0.011
23,PPPPPPPPRPLL,0.787 ± 0.16
24,GGAAGRRAAEVG,0.694 ± 0.013
25,VPPPVCAVPPPL,0.684 ± 0.036
26,TTPTPPPALPLP,0.69 ± 0.019

row,Sequence,protein stability index
1,TSSHLLFISSMI,0.638 ± 0.034
2,VAGWDRETGAWG,0.58 ± 0.083
3,AGGLGGSILCLV,0.556 ± 0.025
4,FFVGAGATEGLG,0.735 ± 0.021
5,FRGGCDRIRYRM,0.696 ± 0.0089
6,PLPPPPLLPFVL,0.774 ± 0.085
7,SRPISCSLPCCV,0.646 ± 0.054
8,LIIMPTFDISAP,0.7273 ± 0.0059
9,PFSSFLSLFPIL,0.7 ± 0.0084
10,VCVSLNVGGVRF,0.658 ± 0.024
11,GRVAPNANAVKF,0.607 ± 0.07
12,PLPSAPLLPPPP,0.686 ± 0.056
13,SPTPPPPAPPPP,0.645 ± 0.044
14,FLLPPAPRPAPP,0.76 ± 0.086
15,LPVCAFGWPVKS,0.6566 ± 0.0037
16,RDELSYIDICLT,0.691 ± 0.025
17,DMYLPSSSHPPP,0.712 ± 0.021
18,YDMFCSYRFYPI,0.636 ± 0.07
19,ATLIGIPPSLSA,0.6643 ± 0.00067
20,HAIPAPDLYHTQ,0.651 ± 0.09
21,TVGLSLGRGSGD,0.67 ± 0.024
22,QQKKCNTIKKNE,0.637 ± 0.0024
23,GSWGWHVRGSGV,0.598 ± 0.037
24,PYTPLLLSTLAP,0.6899 ± 0.0016
25,PPHFPLPLPPTP,0.706 ± 0.024
26,TVFGLLHALLYS,0.724 ± 0.037

row,Sequence,protein stability index
1,PPLLPLPPPPSP,0.625 ± 0.067
2,PIDHCFPPIPRR,0.737 ± 0.035
3,HDSRIDIASFHV,0.716 ± 0.024
4,EGLRLWGRCCWG,0.74 ± 0.048
5,MNRHLHFLSPET,0.648 ± 0.031
6,PRAPRPHPLTNF,0.673 ± 0.051
7,SVWGIVWRGNIV,0.704 ± 0.024
8,RIKRTMNEKIRK,0.68 ± 0.0041
9,DFSPSPWQFTCW,0.692 ± 0.071
10,PPPLPPRMPPPF,0.72 ± 0.036
11,FRLLHLPALSCP,0.565 ± 0.013
12,AHYGSNNNGLVF,0.695 ± 0.042
13,GEAASEKKQEAG,0.644 ± 0.084
14,RIKAKKNKTMKR,0.655 ± 0.021
15,VHGYVRLIWPTI,0.696 ± 0.053
16,GGRGWEGRGGSG,0.684 ± 0.022
17,AVGGGTPGGVSG,0.667 ± 0.012
18,PPICLCHDPAAH,0.659 ± 0.013
19,KFSFVVAVHAGL,0.545 ± 0.024
20,CPGGQVECGVLC,0.652 ± 0.021
21,PPLASSPPVLAR,0.514 ± 0.018
22,QSFGSYYLTIAL,0.67 ± 0.036
23,GLVSGGFYFGLL,0.681 ± 0.054
24,RPFLPPPPHCPP,0.75 ± 0.036
25,VLFCFAHSASFL,0.536 ± 0.066
26,PPGPPRPFPSHL,0.785 ± 0.16

row,Sequence,protein stability index
1,CLARPVFFSFIG,0.559 ± 0.029
2,PPRPSSRVPPPA,0.65 ± 0.059
3,NLKCRMSLKTLG,0.705 ± 0.0018
4,PSPALPANQSFY,0.665 ± 0.019
5,PPPPPPAPPSPA,0.726 ± 0.051
6,CINDSEYHSTMF,0.741 ± 0.043
7,GSRVRGVMWSFL,0.771 ± 0.067
8,VRFKDFDDLGSL,0.704 ± 0.067
9,SFGLRCPASRGS,0.648 ± 0.052
10,LTASRLAGSGGE,0.69 ± 0.023
11,GLSIVCRHYEES,0.685 ± 0.022
12,THFPFPVLFSLP,0.592 ± 0.03
13,AVSCGLGAGSSA,0.645 ± 0.039
14,LRSPPPPAQPFV,0.69 ± 0.0075
15,SASRSLFLSRSP,0.6703 ± 0.0023
16,WGVVAVSGRLGA,0.78 ± 0.012
17,VRAGFRAWGVSE,0.572 ± 0.2
18,WGWGVGWSGACL,0.7116 ± 0.0017
19,GVVGLCLLGLGR,0.701 ± 0.024
20,PPPLPRSPPPPF,0.74 ± 0.021
